From US20120082661A1 (Biogen, published 2012)
Changes are numbered by the printed parent chain.

B1: chC12A3.2 (antibody, human IgG1, kappa, V domains shown)
VH: QIQLVQSGPELKKPGETVKISCKASGYTFRHYSMNWVKQAPGKGLKWMGRINTESGVPIYADDFKGRFAFSVETSASTAYLVINNLKDEDTASYFCSNDYLYSLDFWGQGTTLTVSS
VL: DIVLTQSPPSLAMSLGKRATISCRASESVTILGSHLIYWYQQKPGQPPTLLIQLASNVQTGVPARFSGSGSRTDFTLTIDPVEEDDVAVYYCLQSRTIPRTFGGGTKLEIKR
B2: chC13F12.1 (antibody, human IgG1, kappa, V domains shown)
VH: B1 VH with R30T, S55T, V57E, I59L, V72L, D88N, S93T, Y94F, L104C, F106Y
VL: B1 VL
B3: chC11D5.3 (antibody, human IgG1, kappa, V domains shown)
VH: QIQLVQSGPELKKPGETVKISCKASGYTFTDYSINWVKRAPGKGLKWMGWINTETREPAYAYDFRGRFAFSLETSASTAYLQINNLKYEDTATYFCALDYSYAMDYWGQGTTLTVSS
VL: B1 VL with Y38H
B4: chA7D12.2 (antibody, human IgG1, kappa, V domains shown)
VH: QIQLVQSGPDLKKPGETVKLSCKASGYTFTNFGMNWVKQAPGKGFKWMAWINTYTGESYFADDFKGRFAFSVETSATTAYLQINNLKTEDTATYFCARGEIYYGYDGGFAYWGQGTLVTVSA
VL: DVVMTQSHRFMSTSVGDRVSITCRASQDVNTAVSWYQQKPGQSPKLLIFSASYRYTGVPDRFTGSGSGADFTLTISSVQAEDLAVYYCQQHYSTPWTFGGGTKLDIKR

Target: T1, human BCMA (B cell maturation antigen) (human, UniProt Q02223 1-184)
T1 chain: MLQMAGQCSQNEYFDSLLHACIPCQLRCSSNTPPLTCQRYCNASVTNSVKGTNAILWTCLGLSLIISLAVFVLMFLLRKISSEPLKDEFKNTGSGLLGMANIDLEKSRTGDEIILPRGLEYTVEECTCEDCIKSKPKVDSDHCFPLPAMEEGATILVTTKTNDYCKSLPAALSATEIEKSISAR
Assay: cell-based or functional assay

| Binder | % Killing at 1 nM (ADCC of U266 cells, PBMC effectors, LDH release) |
| --- | --- |
| B1 | 32% |
| B2 | 20% |
| B3 | 18% |
| B4 | 10% |

Target: T1, human BCMA (B cell maturation antigen)
Assay: cell-based or functional assay
Remark: another data set of the same source

| Binder | % Killing at 1 nM (ADCC of JJN-3 cells, PBMC effectors, LDH release) |
| --- | --- |
| B1 | 5% |
| B2 | 3% |
| B4 | 20% |
